Results published in IntAct's records for PubMed 14699056.

B1: Protein EMP47 (Saccharomyces cerevisiae), P43555 (parent)
chain: MMMLITMKSTVLLSVFTVLATWAGLLEAHPLGDTSDASKLSSDYSLPDLINARKVPNNWQTGEQASLEEGRIVLTSKQNSKGSLWLKQGFDLKDSFTMEWTFRSVGYSGQTDGGISFWFVQDSNVPRDKQLYNGPVNYDGLQLLVDNNGPLGPTLRGQLNDGQKPVDKTKIYDQSFASCLMGYQDSSVPSTIRVTYDLEDDNLLKVQVDNKVCFQTRKVRFPSGSYRIGVTAQNGAVNNNAESFEIFKMQFFNGVIEDSLIPNVNAMGQPKLITKYIDQQTGKEKLIEKTAFDADKDKITNYELYKKLDRVEGKILANDINALETKLNDVIKVQQELLSFMTTITKQLSSKPPANNEKGTSTDDAIAEDKENFKDFLSINQKLEKVLVEQEKYREATKRHGQDGPQVDEIARKLMIWLLPLIFIMLVMAYYTFRIRQEIIKTKLL
partner: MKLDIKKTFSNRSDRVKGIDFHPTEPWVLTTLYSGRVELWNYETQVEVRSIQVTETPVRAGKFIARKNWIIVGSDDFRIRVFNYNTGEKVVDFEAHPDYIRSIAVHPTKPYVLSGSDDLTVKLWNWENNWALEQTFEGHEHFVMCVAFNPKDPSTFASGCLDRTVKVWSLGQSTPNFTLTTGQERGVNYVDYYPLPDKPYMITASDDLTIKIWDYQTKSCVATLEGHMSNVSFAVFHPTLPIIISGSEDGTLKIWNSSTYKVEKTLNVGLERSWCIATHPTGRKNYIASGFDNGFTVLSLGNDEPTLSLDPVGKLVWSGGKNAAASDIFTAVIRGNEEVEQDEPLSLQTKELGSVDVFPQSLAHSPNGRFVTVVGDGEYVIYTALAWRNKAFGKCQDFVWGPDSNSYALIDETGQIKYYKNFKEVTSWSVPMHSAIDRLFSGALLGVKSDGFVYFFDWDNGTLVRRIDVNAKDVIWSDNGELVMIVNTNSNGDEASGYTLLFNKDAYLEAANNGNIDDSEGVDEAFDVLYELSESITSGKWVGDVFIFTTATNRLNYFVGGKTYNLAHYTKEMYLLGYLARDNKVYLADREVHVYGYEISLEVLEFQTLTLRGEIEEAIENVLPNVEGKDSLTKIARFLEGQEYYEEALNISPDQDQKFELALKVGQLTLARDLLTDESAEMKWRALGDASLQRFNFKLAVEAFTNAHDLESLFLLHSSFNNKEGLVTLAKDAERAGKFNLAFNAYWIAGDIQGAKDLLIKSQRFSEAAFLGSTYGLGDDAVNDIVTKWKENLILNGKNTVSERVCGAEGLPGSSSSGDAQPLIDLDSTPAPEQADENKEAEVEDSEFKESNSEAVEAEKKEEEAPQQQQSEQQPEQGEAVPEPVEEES
B2: Dolichyl-diphosphooligosaccharide--protein glycosyltransferase subunit WBP1 (Saccharomyces cerevisiae), P33767 (parent)
chain: MRTDWNFFFCILLQAIFVVGTQTSRTLVLYDQSTEPLEEYSVYLKDLEQRNYKLEYLDINSTSTTVDLYDKEQRLFDNIIVFPTKGGKNLARQIPVKQLIKFFENEGNILCMSSPGAVPNTIRLFLNELGIYPSPKGHVIRDYFSPSSEELVVSSNHLLNKYVYNARKSEDFVFGESSAALLENREQIVPILNAPRTSFTESKGKCNSWTSGSQGFLVVGFQNLNNARLVWIGSSDFLKNKNQDSNQEFAKELLKWTFNEKSVIKSVHAVHSHADGTSYDEEPYKIKDKVIYSVGFSEWNGEEWLPHIADDIQFELRQVDPYYRLTLSPSGNDSETQYYTTGEFILPDRHGVFTFLTDYRKIGLSFTTDKDVKAIRHLANDEYPRSWEISNSWVYISAICGVIVAWIFFVVSFVTTSSVGKKLETFKKTN
partner: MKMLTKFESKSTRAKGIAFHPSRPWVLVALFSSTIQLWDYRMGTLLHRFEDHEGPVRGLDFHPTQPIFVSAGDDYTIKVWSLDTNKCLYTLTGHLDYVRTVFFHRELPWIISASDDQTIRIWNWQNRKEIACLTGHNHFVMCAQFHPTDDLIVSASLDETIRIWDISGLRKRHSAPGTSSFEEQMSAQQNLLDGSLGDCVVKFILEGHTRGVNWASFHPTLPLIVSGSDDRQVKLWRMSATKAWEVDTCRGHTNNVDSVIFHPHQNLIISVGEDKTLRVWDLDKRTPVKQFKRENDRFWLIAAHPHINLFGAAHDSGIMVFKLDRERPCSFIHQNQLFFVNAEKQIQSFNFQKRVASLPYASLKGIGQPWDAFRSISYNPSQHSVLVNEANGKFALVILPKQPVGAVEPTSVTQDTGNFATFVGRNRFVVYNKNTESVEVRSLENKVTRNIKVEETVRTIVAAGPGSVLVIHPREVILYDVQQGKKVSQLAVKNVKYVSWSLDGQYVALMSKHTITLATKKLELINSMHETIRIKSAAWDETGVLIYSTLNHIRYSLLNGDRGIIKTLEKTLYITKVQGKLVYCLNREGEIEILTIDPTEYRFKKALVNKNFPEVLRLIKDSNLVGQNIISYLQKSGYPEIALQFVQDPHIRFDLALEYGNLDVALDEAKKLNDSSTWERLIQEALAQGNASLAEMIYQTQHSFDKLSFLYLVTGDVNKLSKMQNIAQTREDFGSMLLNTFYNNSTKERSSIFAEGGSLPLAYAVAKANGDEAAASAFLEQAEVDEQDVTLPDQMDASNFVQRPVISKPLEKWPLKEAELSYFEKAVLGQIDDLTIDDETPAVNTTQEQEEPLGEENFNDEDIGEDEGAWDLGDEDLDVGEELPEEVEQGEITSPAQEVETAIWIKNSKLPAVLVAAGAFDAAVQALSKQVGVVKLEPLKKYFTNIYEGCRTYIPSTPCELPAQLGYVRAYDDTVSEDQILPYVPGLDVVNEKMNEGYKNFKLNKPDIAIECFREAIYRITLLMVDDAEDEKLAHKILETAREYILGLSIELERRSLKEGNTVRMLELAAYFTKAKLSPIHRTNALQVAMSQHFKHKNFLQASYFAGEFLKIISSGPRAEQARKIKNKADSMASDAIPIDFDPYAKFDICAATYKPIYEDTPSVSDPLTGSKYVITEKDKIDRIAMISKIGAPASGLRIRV

Variants of: B1
Settings: with copb2_yeast SEC27, P41811
For K441S;K443S, the “effect of a mutation on the interaction” value was “decreasing interaction”.

Variants of: B2
Settings: with copa_yeast COP1, P53622
K427A;K428A was tested, and the “effect of a mutation on the interaction” value was “decreasing interaction”.
